This note sets out measurements from the DeepSol protein solubility set.

The data set is described as follows: soluble on expression in E. coli; label from the status in PepcDB or PDB records.
With “STLPRFDSVDLGNAPVPADAARRFEELAAKAGTGEAWETAEQIPVGTLFNEDVYKDMDWLDTYAGIPPFVHGPYATMYAFRPWTIRQFAGFSTAKESNAFYRRNLAAGQKGLSVAFDLPTHRGYDSDNPRVAGDVGMAGVAIDSIYDMRELFAGIPLDQMSVSMTMNGAVLPILALYVVTAEEQGVKPEQLAGTIQNDILKEFMVRNTYIYPPQPSMRIISEIFAYTSANMPKWNSISISGYHMQEAGATADIEMAYTLADGVDYIRAGESVGLNVDQFAPRLSFFWGIGMNFFMEVAKLRAARMLWAKLVHQFGPKNPKSMSLRTHSQTSGWSLTAQDVYNNVVRTCIEAMAATQGHTQSLHTNSLDEAIALPTDFSARIARNTQLFLQQESGTTRVIDPWSGSAYVEELTWDLARKAWGHIQEVEKVGGMAKAIEKGIPKMRIEEAAARTQARIDSGRQPLIGVNKYRLEHEPPLDVLKVDNSTVLAEQKAKLVKLRAERDPEKVKAALDKITWAAGNPDDKDPDRNLLKLCIDAGRAMATVGEMSDALEKVFGRYTAQIRTISGVYSKEVKNTPEVEEARELVEEFEQAEGRRPRILLAKMGQDGHDRGQKVIATAYADLGFDVDVGPLFQTPEETARQAVEADVHVVGVSSLAGGHLTLVPALRKELDKLGRPDILITVGGVIPEQDFDELRKDGAVEIYTPGTVIPESAISLVKKLRASLDA”, the “soluble on expression in E. coli” value is on record as “soluble”.
Under “MSLESILITGASGFIGSFIVEEALKRKFGVWAGIRPTSSKKYLKNRKIHFLELDFAHPNELRAQLSGHKGTYNKFDYIIHCAGVTKCPDKNTFDYVNYLQTKYFIDTLKALNMVPKQFIYISTLSVFGPVREKDYSPIEAGDVPMPNTAYGLSKLKAELYIQSIPGFPYVIYRPTGVYGPRELDYFLMAKSIRQHVDFSVGFRRQDLTFVYVKDIVQAIFLGIEKKVTRRAYFLTDGKVYNSRVFSDLIQKELGNPFVIHVKCPLIVLKVISLLAEFIATRSGKSSTLNSDKYKIMKQRNWQCDITPAINELGYAPEYDLEKGVRETIDWYKNEGWEGHHHHHH” stands “soluble”; under “MGSDKIHHHHHHMKKTPKLSVQLWSVKDAINQDFNGTLKTLSNMGFDGVEFAGELGSYANDAKALKLFLDSIDLKASGAHVSFEQLDQDNFQKTVDFYHQLQVDTLIIGLDDRSWHPQGIEEVVKLLNQLDTKLDPYNIKTGFHNHEHEFDNFKGTTYWDYLAMNTKDSVVLQQDVGWTTYAGKDAVEYVYKYPNRSFTTHYRVCIPEGVKGKQPIIGRDTIDWLRLLKANINVGGTKWIVVEQDVYPNGMSSLAAVALSKNGLEQYIDKL”, “not soluble”; under “METPETRFCKESKVVKTSRVFPLDTNNHNTLFGGKLMSYIDDIASISAARHCRRETVTASMDSVDFLKPIGQKDSVCLESYVTWVGTSSMEVFVKVIKEHLMTGERELAATSFLTFVALDSNGKPVPVPRVVPETEEEIMLHNTAVQRANERKNRKRHSQALANALGTDKPWVNVKPKTLEHHHHHH”, “not soluble”.
On to “GMDIMLNTADISAAAILLPVEGAQLSELRQIPAEGGPVLHMLRLDSPQFSQFGEIYFSEVLPRRVKAWKRHSLMTQLFAVPVGCIHVVLYDGREKSPTSGRLAQVTLGRPDNYRLLRIPPQVWYGFAATGDTPALVANCTDIPHRQGESERAPQDAPFIPFSWAGADLSGTPVM”, for which the “soluble on expression in E. coli” value was “soluble”.
For “ERSIGFDGVMYFYSDTEKIRDAAFEAALQDQLEWKIEGLKPYVIPADKTLSDRICREDILRGVTIAANGFYGPQGRRLRLPLKDEDLNRKIQAFDFNGSRITNYEMESSSLAGLAALMGHEAITVCCIIAGRKSEKMNTSYQGSIEGLIDLVLERI”, the “soluble on expression in E. coli” value is “not soluble”.
In the case of “MDALKLLTNRRSSKKLKHPAPDAAELEQIFQAATQVPDHGNMRPFRFTVIQGEVGLQRFRDVLKQTVAELNFGDDAMKKAEKVGNMAPMVIGVTFAPNRDVPKPKPEWEQMLTAGCAAYALQLAATAQGFDNVWITGMWVNSPLLREAFGCADKDKIIGLMMVGTPTEEVHKPKNTDLEAFVSHW”, the “soluble on expression in E. coli” value is recorded as “not soluble”.
As to “MKEIELKLKGEINRLTNKTFKFDERVGEGWFSAVYFLKTREIIEEFRPKSVVTMQFFQKENAVLCGTDEVIALLQTFAKNPEELEINSLKDGDKISPFETVLTIDGPYENFGFLEGVIDGILARRTSVATNVYNVVQAARSVDKEKPVIFMGDRDDHYTQQAGDGYAAYIGGMSAQATHAMNEWWGKSGMGTMPHALIQMFNGDVVEAAKAYHKKFPEDELVVLIDYNNDVITDALRVAREFGSTLKGVRVDTSRTMIDQYFIRHPEVLGTFDPRGVNPSLVFALRKALDEEGFQHVDIVVTGGFDEKRIREFEAQNVPVDIYGVGSSLLKMNIGFTGDNVELNGKPEAKAGRKYRPNPRLERVQLEKREDM”, the “soluble on expression in E. coli” value is “not soluble”.
Regarding “MGHHHHHHSHMDTPENVLQMLEAHMQSYKGNDPLGEWERYIQWVEENFPENKEYLITLLEHLMKEFLDKKKYHNDPRFISYCLKFAEYNSDLHQFFEFLYNHGIGTLSSPLYIAWAGHLEAQGELQHASAVLQRGIQNQAEPREFLQQQYRLFQTRLTETHLPAQAR”, the “soluble on expression in E. coli” value was “not soluble”.
Under “MSLQIVPYLIFNGNCREAFSCYHQHLGGTLEAMLPFGDSPECGDIPADWKDKIMHARLVVGSFALMASDNHPAYPYEGIKGCSISLNVDSKAEAERLFNALAEGGSVQMPLGPTFWAASFGMFTDRFGVAWMVNCEQDREGGSHHHHHH” stands “soluble”; under “LFSCIISSIETTKYVGISGVNKSVIDYTPAADMELVTIGESLSLKHPPIDATGCPSPATITRAAVDLLKIPIMTIDAGSYVKPKIPYISVDQRPTGDIQKGLGMDNSKELLNLGKIIGNNNIYDSLVIGESVPGGTTTALGVLLGLGYDARDKISSGSVENPKDLKLSVVENGLKTCKSEDVFDVLNAVGDKMMPVVAGMTISAVSKGK”, “not soluble”; under “MLKIIPGATGYFNKTLNSNQFDNEDAIKDKLDNRGSIKGKLNNIYGKSIDYAALRHRDIIIAKIDLFIQRITHNLWHARKKMCFLEHHHHHH”, “not soluble”.
In the case of “MPAHQLSDDRAIQGTFMRKRRDSLASVVARDLAGRIERGDYAVGDKIPIEAQLCEMYNVSRTVVREAIATLRSEGLVTSRHGVGVFVEERGNPALSITREAAGELSEVLELLELRLGVEVEAAGLAARRATAEDLRQIREVLEKTDDLEAFAEHRRELDYAFHLAIARASGNSWMPKFMDFIGPVIIPRSQLLHDPQSGITGDYLRQMVEEHRQIVEAIAAGEAAAAQEAMRMHLSTSLERYRRRLTDA”, the “soluble on expression in E. coli” value was “not soluble”.
Under “MESVTRKSVLQLEERPGDSSSSSDEEINTIGNVPLDWYKDLSHIGYTRDGIKLLRRKRVGPLCPVYVKKGFYYLYDEKNDEEIALSRNDLKRLVSIVRLQNPSGATESGFVGEEIVFWTGTPRIEPIRNRNEPKRSFLPSRHEAAQVVKLVRSILRRKRIEELKEHKSEKEDLSIWEETSFEQVGRSHHYLPPPKTPLPGHEESYRPPPEFLLNEEEKSKRKENNELVPETYNFLRHVPLYTSLIREHFERCLELYCAPRMRVRRRKIDPEALLPKLPSPDTLRPFPDSQVASFGPHAGAIRAISLNSNGQWLACACQDGSVSIWEVATGICRIRIDFQEKLKEMLASFESLSQATESEMESMGQYEDLSILHVAWSPKENDFKLAVCIKHFVAVVNVAHILYPDEAQDSQSFGYSVVGEPSSNWKDWKDERGNLGRIAIIEHSRKVQHVHWHQRGDYFVVLTKNAFGSSLVVHQLSRKRTQSPFSKSAKGVITADFHPSKSLFFITTKHHVRIYDLAQAQLVNKLVTGISEISAMSVHPSGNHVLIGSVEGQLVWFDLDLSSRPYKRIRDHTYTVSSIAFHPTLPLFADASDDQTVAVFHATVYEDLLQNPLIVPLKVLKLPHNSKGTGVWSICWHPQLPWLFVSGIDEYVRLYADTS” stands “soluble”; under “GMNTLLKQLKPYPFARLHEAMQGISAPEGMEAVPLHIGEPKHPTPKVITDALTASLHELEKYPLTAGLPELRQACANWLKRRYDGLTVDADNEILPVLGSREALFSFVQTVLNPVSDGIKPAIVSPNPFYQIYEGATLLGGGEIHFANCPAPSFNPDWRSISEEVWKRTKLVFVCSPNNPSGSVLDLDGWKEVFDLQDKYGFIIASDECYSEIYFDGNKPLGCLQAAAQLGRSRQKLLMFTSLSKRSNVPGLRSGFVAGDAELLKNFLLYRTYHGSAMSIPVQRASIAAWDDEQHVIDNRRLYQEKFERVIPILQQVFDVKLPDASFYIWLKVPDGDDLAFARNLWQKAAIQVLPGRFLARDTEQGNPGEGYVRIALVADVATCVKAAEDIVSLYR”, “soluble”.
“MGSDKIHHHHHHMFQPPLIAFLTDFGLEDAFVGVMKGVIATICREAQVIDLTHAISAQNVRQAAFHLDRSISYFPAETIFVCVVDPGVGTARRAIGVEAGPYRFIAPDNGLLTPVFERWADAKCHELTNPAYQLANPSATFHGRDLFSPAAAHLATGVPLNAFGSAIDVANCTRIELWQNKPCDNGKVWTGEVIATDHFGNLITSFEASMLSDGEDWTVKAGNAEPLPILRTYGEVEQGKPLAYIGSSGMIEIAIRNGSASAELRVGGGDEVELRKG”: the “soluble on expression in E. coli” value is recorded as “not soluble”.
Regarding “MSLNARSYLEQQLTGQNANAANALALAITQSQADKAMAETLINATFDQGYFHHIRWQGADGKVRVDRVNEAVFPAAPGWFRALLPLSPQPGSALVTAGWMQAGEIRVEAALGYAYESLWRGALQTMLWLLGTGLLAGLLGSIDIFKLRRDLQRVVNQARAISEHRFQRMTEPKVPELARVVGAMNQMVERLQSFLGEQSEEVEQLRRERHTDPVTGLPNREALEQAVSSTLAEEDDVRGCLLLLRLAGLAELNQRLGGERADALLVRLAADLEDLAARRKGWMAARLRGADFAVFCPELDMDGGRQLAETLCEQLALYRQMGLSDRDGIGHIGVCGIVQGDGLASLLARASQALAEAEAAGDNQWRVDDGAGPDVGSEWDWRELIEAACREHSEGHHHHHH”, the “soluble on expression in E. coli” value is listed as “soluble”.
“MHRRGVGAGAIAKKKLAEAKYKERGTVLAEDQLAQMSKQLDMFKTNLEEFASKHKQEIRKNPEFRVQFQDMCATIGVDPLASGKGFWSEMLGVGDFYYELGVQIIEVCLALKHRNGGLITLEELHQQVLKGRGKFAQDVSQDDLIRAIKKLKALGTGFGIIPVGGTYLIQSVPAELNMDHTVVLQLAEKNGYVTVSEIKASLKWETERARQVLEHLLKEGLAWLDLQAPGEAHYWLPALFTDLYSQEITAEEAREALP”: the “soluble on expression in E. coli” value is “soluble”.
In the case of “MSLNDLLTRRAVVAGMGVLGLGLLAGCSPARGLEFKYGKNMSNEILGRKFSLKDPQGNVRTLSSFYGSMPMVFFGFTQCPAVCPTTLARAAQIRKLLRGRDRDLFQVVFITLDPERDTPEVLDAYVKAFDPTFTALTGTPEEIAAVAKEFKVFYEKVPAGDTYTISHSSTSYVYDTRGTLRLSLGHSLNAKECAEDLVTLMEIEGHHHHHH”, the “soluble on expression in E. coli” value was “soluble”.
Consider “MSESSVTTEIVVRLPKQMVTELDGIGKQENKNRHELICQATQLLLRQHKTKKRYQHESMRRGYIEMGKINLGIASEAFLAEYEAAHTVERLVSGG”, for which the “soluble on expression in E. coli” value is reported as “not soluble”.
